{"source": "paper PMC3821027", "key": {"[1]": {"test_system": "rCTS (TRX-L1 ORF2p CTS, wild type) (Homo sapiens (LRE1 / L1.2 element, pSM42))", "test": "EMSA"}, "[2]": {"test_system": "rCTS (TRX-L1 ORF2p CTS, wild type) (Homo sapiens (LRE1 / L1.2 element, pSM42))", "test": "EMSA", "remark": "listed apart in the source"}}, "note": "Like-named read-outs stand apart in the source and are kept apart here."}
{"substance": "380 nt L1 3'UTR RNA", "values": [{"measurement": "Kd", "setting": "[1]", "result": 57, "unit": "nM"}, {"measurement": "Kd", "setting": "[2]", "result": 63, "unit": "nM"}]}
